According to article PMC3025356, “Mechanism of the Ca^2+-Dependent Interaction between S100A4 and Tail Fragments of Nonmuscle Myosin Heavy Chain IIA” (Journal of Molecular Biology, 2011):
Where two headings read alike, the source gives them in different places.

How the values were obtained:
[1] = target: S100A4 (wild type, full-length) (UniProt P26447); assay: fluorescence polarisation + other: stopped-flow fluorescence; K2 with Ca2+: anisotropy value corrected for the 35% quench of fluorescein, identical with k-2/k2 of the stopped-flow records; per S100A4 monomer
[2] = target: S100A4 (wild type, full-length) (UniProt P26447); assay: stopped-flow fluorescence; 0.1 μM F-M16^N mixed with S100A4, fluorescein emission intensity, with Ca2+; kobs against [S100A4]; dissociation also by displacement with excess M32
[3] = target: S100A4 (wild type, full-length) (UniProt P26447); assay: fluorescence polarisation; fluorescein anisotropy; 0.1 μM F-M16^N titrated with S100A4; 20 mM NaCl, 10 mM Hepes, 1 mM Mg2+, 100 μM Ca2+, pH 7.5, 20 °C; apparent; 1:1 binding per S100A4 monomer assumed
[4] = target: S100A4 (wild type, full-length) (UniProt P26447); assay: stopped-flow fluorescence; 0.1 μM F-M16^N mixed with S100A4, fluorescein emission intensity, with Ca2+; kobs against [S100A4]; dissociation also by displacement with excess M32; remark: listed apart in the source
[5] = target: S100A4 (wild type, full-length) (UniProt P26447); assay: fluorescence polarisation; as a1 but without Ca2+: EGTA added to 1 mM at the end of the titration
[6] = target: S100A4 (wild type, full-length) (UniProt P26447); assay: fluorescence polarisation; competition: displacement of F-M16^N (5 μM) from S100A4 (5 μM) by increasing M32 or M16^N, with Ca2+; fit to a competitive single-site model with Kd of F-M16^N fixed at 2 μM

Sequence of S100A4 (wild type, full-length) (P26447 whole entry): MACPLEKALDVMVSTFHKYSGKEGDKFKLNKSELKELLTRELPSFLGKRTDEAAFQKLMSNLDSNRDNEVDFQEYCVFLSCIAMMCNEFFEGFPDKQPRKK

Row | Kd [1] [µM] | koff [2] [s⁻¹] | kon [2] [M⁻¹ s⁻¹] | Kd [3] [µM] | koff [4] [s⁻¹] | Kd [5] [µM] | Kd [6] [µM] | Substance
1 | 1.3 | 6.2 | 4.9e+06 | 2 | 7.7 | > 300 |  | F-M16^N, fluorescein-labelled M16^N myosin peptide (NM-MHC IIA D1908-R1923) (from UniProt P35579-1 1908-1923)
2 |  |  |  |  |  |  | > 100 | M16^N myosin peptide (NM-MHC IIA D1908-R1923) (from UniProt P35579-1 1908-1923)
